{
  "source": "paper PMC11005723",
  "about": "“Development of Complementary Photo‐arginine/lysine to Promote Discovery of Arg/Lys hPTMs Interactomes” (Advanced Science, 2024)",
  "binders": {"B1": {"name": "native H3R2me2a peptide (H3_(1‐15) without diazirine and biotin) (peptide)", "peptide": "A[Arg(Me2a)]TKQTARKSTGGKA-NH2", "notes": "Rink amide resin was used for all peptides, so the C-terminus is probably an amide; source: synthetic peptide (Fmoc solid-phase synthesis)"}, "B2": {"name": "native H3R2 peptide (H3_(1‐15) without diazirine and biotin) (peptide)", "peptide": "ARTKQTARKSTGGKA-NH2", "notes": "Rink amide resin was used for all peptides, so the C-terminus is probably an amide; also called native H3_(1‐15) peptide; source: synthetic peptide (Fmoc solid-phase synthesis)"}},
  "assay_in_all_cases": "ITC; 25 °C, MicroCal PEAQ-ITC; protein in the cell titrated with 19 injections of peptide",
  "settings_in_all_cases": "both partners purified",
  "key": {"RBBP7 (1‐ 425)": {"biological_target": "T1, RBBP7 (1‐ 425) (UniProt Q16576 1-425)", "T1 construct": "RBBP7 residues 1-425; source: Sf9 (baculovirus), purified (Ni-NTA, Resource Q, Superdex 75)", "T1 sequence (Q16576 whole entry, the tested form may be a part)": "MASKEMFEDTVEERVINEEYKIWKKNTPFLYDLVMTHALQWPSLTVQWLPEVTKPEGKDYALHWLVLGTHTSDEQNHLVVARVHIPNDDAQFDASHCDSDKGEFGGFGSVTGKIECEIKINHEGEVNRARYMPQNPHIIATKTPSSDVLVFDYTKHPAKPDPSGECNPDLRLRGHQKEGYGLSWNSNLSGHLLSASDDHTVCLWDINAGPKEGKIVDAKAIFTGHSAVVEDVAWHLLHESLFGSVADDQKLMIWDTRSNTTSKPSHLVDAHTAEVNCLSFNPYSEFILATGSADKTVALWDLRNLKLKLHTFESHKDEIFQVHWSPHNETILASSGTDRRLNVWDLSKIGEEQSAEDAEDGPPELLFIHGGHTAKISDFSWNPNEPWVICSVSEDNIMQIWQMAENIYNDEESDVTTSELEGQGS"}, "RBBP4 (1‐ 425)": {"biological_target": "T2, RBBP4 (1‐ 425) (UniProt Q09028 1-425)", "T2 construct": "RBBP4 residues 1-425; source: Sf9 (baculovirus), purified (Ni-NTA, Resource Q, Superdex 75)", "T2 sequence (Q09028 whole entry, the tested form may be a part)": "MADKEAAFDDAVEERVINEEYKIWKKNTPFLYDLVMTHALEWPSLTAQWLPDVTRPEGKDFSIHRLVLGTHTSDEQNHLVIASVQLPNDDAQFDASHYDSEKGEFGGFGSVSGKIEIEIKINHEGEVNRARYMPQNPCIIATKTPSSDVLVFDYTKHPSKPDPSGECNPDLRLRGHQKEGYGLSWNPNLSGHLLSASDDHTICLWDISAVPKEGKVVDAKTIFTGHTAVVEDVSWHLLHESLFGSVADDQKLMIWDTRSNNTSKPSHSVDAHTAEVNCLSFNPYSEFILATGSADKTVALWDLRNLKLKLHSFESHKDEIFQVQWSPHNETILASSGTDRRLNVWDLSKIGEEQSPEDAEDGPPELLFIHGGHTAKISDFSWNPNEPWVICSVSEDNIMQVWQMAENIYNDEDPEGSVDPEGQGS"}, "[1]": {"biological_target": "T3, PHD domain of UHRF1 (UHRF1PHD) (structural Zn2+ ions bound; limits are not given, so they follow the usual UHRF1 PHD structural constructs (about 298-366), which include the N-terminal pre-PHD zinc site; the UniProt PHD-type featu)", "T3 chain": "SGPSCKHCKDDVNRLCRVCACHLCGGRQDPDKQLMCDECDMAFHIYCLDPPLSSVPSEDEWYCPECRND"}},
  "note": "Non-standard residues stand in square brackets, D forms with d. No end group written: not given here. Arg(Me2a) = CN(C)C(=N)NCCC[C@H](N)C(=O)O",
  "data": [
    {"binder": "B1", "values": [
      {"measurement": "Kd", "setting": "RBBP7 (1‐ 425)", "value": 15400, "unit": "nM"},
      {"measurement": "Kd", "setting": "RBBP4 (1‐ 425)", "value": "~1200", "unit": "nM"}
    ]},
    {"binder": "B2", "values": [
      {"measurement": "Kd", "setting": "[1]", "value": 2300, "unit": "nM"}
    ]}
  ]
}
